Results taken from PMC4841250, “Structure and stability of recombinant bovine odorant-binding protein: I. Design and analysis of monomeric mutants” (PeerJ, 2016).

Target: the molecule itself
Assay: SEC; gel filtration on Superdex-75 PC 3.2/30, buffered solution (20 mM Na-phosphate, pH 7.8) without OCT; calibrated with protein standards; monomer and dimer

B1: recombinant wild type bovine odorant-binding protein (natural protein)
chain: AQEEEAEQNLSELSGPWRTVYIGSTNPEKIQENGPFRTYFRELVFDDEKGTVDFYFSVKRDGKWKNVHVKATKQDDGTYVADYEGQNVFKIVSLSRTHLVAHNINVDKHGQTTELTELFVKLNVEDEDLEKFWKLTEDKGIDKKNVVNFLENEDHPHPE
notes: also called bOBP; bOBPwt; source: E. coli BL21(DE3), purified (Ni-agarose, HisGraviTrap columns)
stoichiometry N: 2
